{"source": "patent US12312397B2", "about": "“Anti-O2 antibodies and uses thereof” (priority 2016, dated 2025)", "molecules": {"B1": {"name": "KPS18: Class III anti-O2 antigen human mAb; VH SEQ ID NO: 98, VL SEQ ID NO: 99 (antibody, V domains shown)", "VH": "EVRLVESGGGLVKPGGSLRLSCAASGFTFKNAWMSWIRQAPGKGLEWVGRVKNEVDGGTIDYGVPVRGRFTISRDDSQGTLSLEMNSLREDDTGIYYCRAFWSGFPAGYWGQGTLVSVSS", "VL": "QSVLTQPPSLSAAPGQTVTIACSGSRSNIGSDSVSWFQQFPGTAPRVLMYDNNKRPSGISDRFSGSKSGTSVTLDITGLQTGDEADYYCATWDSSLSAYVFGSGTKVTVL", "modifications": "Description of Artificial Sequence: SyntheticKPS18 VH polypeptide; Description of Artificial Sequence: SyntheticKPS18 VL polypeptide"}, "B2": {"name": "6F6: Class I mouse hybridoma anti-O2 mAb (Ms IgM); VH SEQ ID NO: 80, VL SEQ ID NO: 81 (antibody, V domains shown)", "VH": "QVHLQQSGSELRSPGSSVKLSCKDFDSDVFPIAYMGWIRQQPGHGFDWIGDILPNIGRTIYGEKFEDKATLDADTVSNTAYLELSSLTSEDSAIYYCARRGTSGAMDYWGQGTSVTVSS", "VL": "DVVMTQTPLFLPVSLGDQASISCRSSQGLVHSTGNTFLHWYLQKPGQSPKLLIYKVSNRFSGVPDRFSGSGSGTDFTLKISRVEAEDLGIYFCSQSTHIPYTFGGGTKLEIK", "modifications": "Description of Artificial Sequence: Synthetic6F6 VH polypeptide; Description of Artificial Sequence: Synthetic6F6 VL polypeptide"}, "B3": {"name": "antibody C: sequence-optimized KPN179, all frameworks germlined; VH SEQ ID NO: 188, VL SEQ ID NO: 191 (antibody, V domains shown)", "VH": "EVQLVESGGGLVKPGGSLRLSCAASGFTFSNAWMNWVRQAPGKGLEWVGRIKRKADGETTDYAAPVKGRFTISRDDSKNTLYLQMNSLKTEDTAVYYCTTRIVTTNDYWGQGTLVTVSS", "VL": "QSALTQPRSVSGSPGQSVTISCTGTSSDVGYYDYVSWYQQHPGKAPKLMIYDVNKRPSGVPDRFSGSKSGNTASLTISGLQAEDEADYYCASYAGGDTFVFGTGTKVTVL", "modifications": "Description of Artificial Sequence: SyntheticKPN179-FR-GL N35S-VH/KPN179-FR-GL-C105A-VL VHpolypeptide; Description of Artificial Sequence: SyntheticKPN179-FR-GL N35S-VH/KPN179-FR-GL-C105A-VL VL polypeptide"}, "B4": {"name": "antibody B: sequence-optimized KPN42; VH SEQ ID NO: 17, VL SEQ ID NO: 18 (antibody, V domains shown)", "VH": "EVQLVESGGGLVKPGGSLRLSCAASGFTFNDAWMNWVRQAPGKGLEWVGRIKKKHEGVTTDYPASVRGRFTISRDDSKNTVYLQMGRLRIEDTAIYYCTTRIVTTNDYWGQGTLVTVSS", "VL": "B3 VL with Y31A, T98I", "modifications": "Description of Artificial Sequence: SyntheticKPN42-v2016 VH polypeptide; Description of Artificial Sequence: SyntheticKPN42-v2016 VL polypeptide"}, "B5": {"name": "antibody D: sequence-optimized KPN179; VH SEQ ID NO: 187, VL SEQ ID NO: 190 (antibody, V domains shown)", "VH": "B3 VH with A63P, P65S, I72V, L81I, V95I", "VL": "B3 VL", "modifications": "Description of Artificial Sequence: SyntheticKPN179-FR-1-2-4-GL N35S-VH/KPN179-FR-GL-C105A-VL VHpolypeptide; Description of Artificial Sequence: SyntheticKPN179-FR-1-2-4-GL N35S-VH/KPN179-FR-GL-C105A-VL VLpolypeptide"}, "B6": {"name": "antibody A: sequence-optimized KPN42, all frameworks germlined; VH SEQ ID NO: 26, VL SEQ ID NO: 27 (antibody, V domains shown)", "VH": "B3 VH with S30N, N31D, R53K, A55H, D56E, E58V", "VL": "B3 VL with Y31A, T98I", "modifications": "Description of Artificial Sequence: SyntheticKPN42-FR-GL-VH/KPN42-FR-GL-C105A-VL VH polypeptide; Description of Artificial Sequence: SyntheticKPN42-FR-GL-VH/KPN42-FR-GL-C105A-VL VL polypeptide"}, "B7": {"name": "KPS3: Class III anti-O2 antigen human mAb; VH SEQ ID NO: 35, VL SEQ ID NO: 36 (antibody, V domains shown)", "VH": "QGQLVDSGGGVVQRGGSQRLSCAASGFSFRDYGMHWVRQAPGKGLEWVAFISYDGRDQYYADSVKGRFIISRDNSKNTLSLQMNSLRPEDTAVYYCGPFYNPSLYYPPWGHGLPVIVSS", "VL": "EVVLTQSPATLSLSPGERATLSCRASQSISSQLAWYQQKPGQAPRLLIHDASNRDTGVPDRFSGSGSGTDFTLTISSLEPEDFAMYYCLQRNNWPPWTFGQGTKVEIK", "modifications": "Description of Artificial Sequence: SyntheticKPS3 VH polypeptide; Description of Artificial Sequence: SyntheticKPS3 VL polypeptide"}}, "key": {"[1]": {"system": "O2 LPS", "experiment": "ELISA binding to O2 LPS", "parameters": "species or system Klebsiella pneumoniae", "conditions": "for binding to LPS-O2: secondary screening, ELISA; for binding to O2 LPS compared to parent antibody: sequence-optimized variants, FIG. 9", "procedure": "The coated plates were incubated with cell culture supernatants from polyclonally stimulated lymphocytes (AMVBRA) or from monoclonal immortalized B cells (donor interrogations) containing fully human antibodies or with diluted plasma samples (PBMC donor selections) for 1 hour at room temperature. The plates were then washed with PBS containing 0.1% Tween-20 (PBS-T). Secondary antibody was added; either Alkaline Phosphatase-conjugated Goat Anti-Human IgG-AP (Southern Biotech, 2040-04, 1:1000 in PBS-B) or Peroxidase AffiniPure F(ab′)2 Fragment Goat Anti-Human IgG, Fc Fragment Specific (Jackson ImmunoResearch #309 036 098, 1:5000 in PBS-B) were used. Secondary antibodies were typically incubated for 1 h. Plates were washed three times with PBS-T, and P-NitroPhenyl Phosphate (pNPP, Sigma-Aldrich, cat #N2765-100TAB) or Sureblue (KPL, 53-00-03) substrates were added and incubated for 10 min or until the development of a colorimetric reaction. In the case of the HRP substrate Sureblue, the reaction was stopped by adding an equal volume of 0.2N HCl. The absorbance at 405 nm (pNPP) or 450 nm (Sureblue) was measured by a microplate reader (Biotek, Elx808).\nThe coated plates were incubated with serial dilutions of the monoclonal antibodies for 1 hour at room temperature. The plates were then washed with PBS containing 0.1% Tween-20 (PBS-T). Alkaline Phosphatase-conjugated Goat Anti-Human IgG (Southern Biotech, 2040-04, 1:1000 in PBS-B) was added. The secondary antibody reactions were incubated for 1 h. Plates were washed three times with PBS-T, and P-NitroPhenyl Phosphate (pNPP, Sigma-Aldrich, cat #N2765-100TAB) substrate was added and incubated for 30 min or until the development of a colorimetric reaction. The absorbance at 405 nm was measured by a microplate reader (Biotek, Elx808). The data was plotted with Graphpad Prism software. Representative mAbs from each class were tested for their binding to O1 LPS (FIG. 2A) and O2 LPS (FIG. 2B), and EC50 values were obtained (FIG. 2C). The majority of the anti-O2 LPS mAbs bound to both O1 and O2 LPS by ELISA. […] None of these LPS mAbs bound to the 03, 04, 05, 07, or 012 LPS serotypes (see e.g., FIG. 1A)."}, "[2]": {"system": "O1 LPS activation of NF-κB in RAW264.7-lux cells", "experiment": "LPS neutralization assay (NF-κB luciferase, RAW264.7-lux), O1 LPS", "format": "cell-based, murine", "conditions": "human IgG1 format", "procedure": "(§1) Activation of TLR4 receptors by bacterial LPS leads to downstream activation of the NF-κB transcriptional regulator. A decrease in induction of NF-κB-responsive luciferase activity was used to quantify LPS neutralization activity by LPS mAbs. A murine RAW264.7 macrophage cell line was engineered to carry a firefly luciferase reporter gene under the control of an NF-κB-responsive promoter (RAW264.7-lux). Serially diluted antibody stocks were mixed with LPS in a 1:1 ratio and incubated at 4° C. for 1 hr. Antibody/LPS mixtures were then diluted 1:10 into assay plates containing pre-seeded RAW264.7-lux cells (4e5 cells/well), which were then placed at 37° C. with 5% CO2 for 2.5 hours. Following incubations, Steady Glo solution (Promega) was added to each well and incubated for another 20 min protected from light. The relative light units (RLUs) were measured using a multi-mode microplate reader (Synergy 2, Biotek or envision multilabel plate reader, Perkin Elmer). The percentage of inhibition was determined by comparing RLU derived from assays with no antibodies to RLU derived from assays with anti-K. pneumoniae mAbs and assays performed with a negative control mAb. […] All mAbs were tested in human IgG1 format."}, "[3]": {"system": "O2 LPS activation of NF-κB in RAW264.7-lux cells", "experiment": "LPS neutralization assay (NF-κB luciferase, RAW264.7-lux), O2 LPS", "format": "cell-based, murine", "parameters": "key to LPS Neut O2: +++: Strongly positive activity; +: Positive activity; +/−: Somewhat positive depending upon the test conditions", "conditions": "for LPS Neut O2: Table 7 summary; for neutralizing activity against O2 LPS (NF-κB activation): human IgG1 format; for neutralization of LPS-O2: secondary screening", "procedure": "as §1"}, "[4]": {"system": "K. pneumoniae 8570ΔcpsBLux (O2)", "experiment": "Opsonophagocytic killing (OPK) assay, O2 capsule mutant", "format": "cell-based, Klebsiella pneumoniae", "parameters": "key to D Capsule OPK O2: +++: Strongly positive activity; +: Positive activity; +/−: Somewhat positive depending upon the test conditions", "conditions": "for D Capsule OPK O2: capsule mutant strain 8570ΔcpsB lux (O2); for OPK activity against O2 capsule mutant: secondary screening", "procedure": "OPK activity of anti-O2 LPS mAbs was tested against O1 and O2 strains. Briefly, log phase cultures of luminescent K. pneumoniae strains 8570ΔcpsBLux (O2) and 43816ΔcpsBLux (O1) were diluted to ˜2×10^6 cells/ml. K. pneumoniae cells, 5e5/well dimethylformamide (DMF) differentiated HL-60 cells, cleared baby rabbit serum (1:10 Cedarlane), and a series dilution of antibodies (2 ng-2.5 μg/mL) were mixed in 96-well plates and incubated at 37° C. for two hours with shaking (250 rpm). The relative light units (RLUs) were then measured using a multi-mode microplate reader (Synergy 2, Biotek or envision multilabel plate reader, Perkin Elmer). The percentage of killing was determined by comparing RLU derived from assays with no antibodies to RLU derived from assays with anti-K. pneumoniae mAbs and assays performed with a negative control mAb. Positive killing was determined where the percentage of killing is above 40%."}}, "note": "Residue numbers refer to the chain shown, from its start. In names and notes the source's numbering stands."}
{"molecule": "B1", "values": [{"measurement": "binding to LPS-O2", "setting": "[1]", "result": "bound specifically"}, {"measurement": "neutralizing activity against O1 LPS (NF-κB activation)", "setting": "[2]", "result": "no activity"}, {"measurement": "LPS Neut O2", "setting": "[3]", "result": "+/−"}, {"measurement": "neutralizing activity against O2 LPS (NF-κB activation)", "setting": "[3]", "result": "moderate neutralizing activity"}, {"measurement": "neutralization of LPS-O2", "setting": "[3]", "result": "neutralized"}, {"measurement": "D Capsule OPK O2", "setting": "[4]", "result": "+++"}, {"measurement": "OPK activity against O2 capsule mutant", "setting": "[4]", "result": "strong OPK activity"}]}
{"molecule": "B2", "values": [{"measurement": "D Capsule OPK O2", "setting": "[4]", "result": "+"}]}
{"molecule": "B3", "values": [{"measurement": "binding to O2 LPS compared to parent antibody", "setting": "[1]", "result": "significantly reduced binding"}]}
{"molecule": "B4", "values": [{"measurement": "binding to O2 LPS compared to parent antibody", "setting": "[1]", "result": "comparable binding"}]}
{"molecule": "B5", "values": [{"measurement": "binding to O2 LPS compared to parent antibody", "setting": "[1]", "result": "comparable binding"}]}
{"molecule": "B6", "values": [{"measurement": "binding to O2 LPS compared to parent antibody", "setting": "[1]", "result": "comparable binding"}]}
{"molecule": "B7", "values": [{"measurement": "binding to LPS-O2", "setting": "[1]", "result": "bound specifically"}, {"measurement": "neutralizing activity against O1 LPS (NF-κB activation)", "setting": "[2]", "result": "no activity"}, {"measurement": "LPS Neut O2", "setting": "[3]", "result": "+/−"}, {"measurement": "neutralizing activity against O2 LPS (NF-κB activation)", "setting": "[3]", "result": "moderate neutralizing activity"}, {"measurement": "neutralization of LPS-O2", "setting": "[3]", "result": "neutralized"}, {"measurement": "D Capsule OPK O2", "setting": "[4]", "result": "+++"}, {"measurement": "OPK activity against O2 capsule mutant", "setting": "[4]", "result": "strong OPK activity"}]}
